# From US20080093219A1
# Biological target: T4 tail-fiber protein P37 SΔ1ras2 (gene 37 SΔ1 deletion with the H-ras mAb epitope inserted at the junction), on SΔ1ras2 phage (bacteriophage T4; bacteriophage T4 with human H-ras insert) (UniProt P03744)
# Test: cell-based or functional assay
substance,measurement,value
rat monoclonal IgG antibody Y13-259,phage inactivated after mAb and anti-rat IgG serum,85%
same,"phage inactivated, control treatment (mAb with buffer only)",99.8%
same,"phage inactivation, time course of mAb treatment",99.9%
